Test results: paper PMC6523098 (2019)

Molecular target: T1, His:AtBPM3 (Arabidopsis thaliana (Mouse-ear cress), UniProt O22286)
T1 chain: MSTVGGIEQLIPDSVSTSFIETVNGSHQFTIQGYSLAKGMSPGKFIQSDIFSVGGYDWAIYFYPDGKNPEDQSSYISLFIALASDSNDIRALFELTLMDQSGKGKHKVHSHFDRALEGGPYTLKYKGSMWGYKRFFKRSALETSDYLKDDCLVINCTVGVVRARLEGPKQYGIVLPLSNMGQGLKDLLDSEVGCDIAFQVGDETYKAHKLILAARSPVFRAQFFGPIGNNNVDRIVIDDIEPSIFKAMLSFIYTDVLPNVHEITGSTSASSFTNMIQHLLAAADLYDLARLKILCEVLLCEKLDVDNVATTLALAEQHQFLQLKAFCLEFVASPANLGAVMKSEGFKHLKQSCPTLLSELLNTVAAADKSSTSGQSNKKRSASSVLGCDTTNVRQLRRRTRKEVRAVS
Assay: pulldown

binding result: binds
B1: GST:AtRAP2.4 (protein)
chain: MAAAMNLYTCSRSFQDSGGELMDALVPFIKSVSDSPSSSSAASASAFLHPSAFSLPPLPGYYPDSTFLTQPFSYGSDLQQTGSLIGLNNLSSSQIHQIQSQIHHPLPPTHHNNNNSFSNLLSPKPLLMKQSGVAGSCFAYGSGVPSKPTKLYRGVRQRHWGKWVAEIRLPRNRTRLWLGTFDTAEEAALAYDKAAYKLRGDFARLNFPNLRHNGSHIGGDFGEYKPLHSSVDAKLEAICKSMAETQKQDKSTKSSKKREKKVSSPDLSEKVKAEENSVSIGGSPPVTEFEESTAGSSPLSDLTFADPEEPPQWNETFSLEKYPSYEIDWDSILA
